Test results as given in the nanobody polyreactivity screen of Harvey et al. (2022).

Test: yeast display, Sf9 membrane polyspecificity reagent, FACS + sequencing; frameworks hold sequencing errors
In short: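 Using colony PCR, genes from sorted yeast display clones were amplified, then sequenced on MiSeq at 2 × 250 and filtered by CDR length. The clones had been stained with 10% biotinylated, detergent-solubilized Sf9 membrane reagent for 1 hour at 4 °C and sorted by FACS into low and high (top ~1%) gates on anti-HA and streptavidin fluorescence. Polyreactivity labels come from the gate of origin.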

Which “polyreactivity (PSR sort gate)” value does the source give for “QVQLVESGGGLVQAGGSLRLSCAASGGIFTKNAMGWYRQAPGKERELVAGISRTGGNTYYADSVKGRFTISRDNAKNTVYLQMNSLKPEDSAVYYCAAGRYYAVWQSISGFDSWGQGTQVTVSS” here?
The value was “low polyreactivity”.

With “QVQLVESGGGLVQAGGSLRLSCAASGGIFTKNAMGWYRQAPGKERELVAGISRTGGNTYYADSVKGRFTISRDNAKNTVYLQMNSLKPEDTAVYYCHWAKWYRYGGYRSRYDYWGQGTQVTVSS” as the sequence, how does the “polyreactivity (PSR sort gate)” value read?
Its value is “low polyreactivity”.

For “QVQLVESGGGLVQAGGSLRLSCAASGGIFTLYVMGWYRQAPGKERELVAAISRTGGSTYYADSVKGRFTISRDNAKNTVYLQMNSLKPEDTAVYFCAALYRGGTRYGGYDYWGQGTQVTVSS”, which “polyreactivity (PSR sort gate)” value is on record?
The value was “high polyreactivity”.

For “QVQLVESGGGLVQAGGSLRLSCAASGGIFTPYAMGWYRQAPGKERELVAAISRSGGSTYYADSVKGRFTISRDNAKNTVYLQMNSLKPEDTAVYYCNALFRALKAFSQYNYWGQGTQVTVSS”, which “polyreactivity (PSR sort gate)” value is on record?
Its value is “high polyreactivity”.

For “QVQLVESGGGLVQAGGSLRLSCAASGGIFTQYAMGWSRQAPWKERELVAAITRSGGTYYADSVKGRFTISRDNAKNTVYLQMNSLKPEDTAVYYCAAEWIDAYYDYDYWGQGTQVTVSS”, which “polyreactivity (PSR sort gate)” value is on record?
Its value is “high polyreactivity”.

With “QVQLVESGGGLVQAGGSLRLSCAASGGIFVSYAMGWSRQAPGKERELVARINTVDGTNYADSVKGRFTISRDNAKNTVYLQMNSLKPEDTAVYYCAVRSPVLASDYGYYFLRDYWGQGTQVTVSS” as the sequence, how does the “polyreactivity (PSR sort gate)” value read?
Its value is “low polyreactivity”.

Which “polyreactivity (PSR sort gate)” value does the source give for “QVQLVESGGGLVQAGGSLRLSCAASGGIFWFYAMGWYRQAPGKERELVASIRSSDGGTYYADSVKGRFTISRDNAKNTVYLQMNSLKPEDTAVYYCAADQTYERHWVYYWGQGTQVTVSS” here?
Its value is “low polyreactivity”.

For “QVQLVESGGGLVQAGGSLRLSCAASGGIFWYNAMGWYRQAPGKERELVAAITWNGGRTYYADSVKGRFTISRDNAKNTVYLQMNSLKPEDTAVYYCAARSPVKRQSRKQYYYWGQGTQVTVSS”, which “polyreactivity (PSR sort gate)” value is on record?
Its value is “high polyreactivity”.

For “QVQLVESGGGLVQAGGSLRLSCAASGGIFYDYAMGWYRQAPGKERELVAAITRSGDSTYYADSVKGRFTISRDNPKNTVYLQMNSLKPEDTAVYYCAADIWSSDYEEFYYWGQGTQVTVSS”, which “polyreactivity (PSR sort gate)” value is on record?
The value was “low polyreactivity”.

With “QVQLVESGGGLVQAGGSLRLSCAASGGIFYFYAMGWSRQAPGKERELVAAISSNGGRTYYADSVKGRFTISRDNAKNTVYLQMNSLKPEDTAVYYCNAVSRVSDRHLATYDYWGQGTQVTVSS” as the sequence, how does the “polyreactivity (PSR sort gate)” value read?
Its value is “high polyreactivity”.

With “QVQLVESGGGLVQAGGSLRLSCAASGGIFYLNAMGWYREAPGKERELVAAISSGVSTYYADSVKGRFTISRDNAKNTVYLQMNSLKPEDTAVYYCNADYNYPAWVGSWWDYDYWGQGTQVTVSS” as the sequence, how does the “polyreactivity (PSR sort gate)” value read?
The value was “low polyreactivity”.

Which “polyreactivity (PSR sort gate)” value does the source give for “QVQLVESGGGLVQAGGSLRLSCAASGGIFYLYAMGWYRQAPGKERELVAAITWSADSTYYADSVKGRFTISRDNAKYTVYLQMNSLKPEDTAVYYCNADVAWQYWNGWSWDIYDYWGQGTQVTVSS” here?
The value was “low polyreactivity”.

For “QVQLVESGGGLVQAGGSLRLSCAASGGIFYTNAMGWYRQAPGKERELVAAIRKNGDSTNYADSVKGRFTISRDNAKYTVYLHMNSLKPEDTAVYYCNDELWPWAYDYWGQGTQVTVSS”, which “polyreactivity (PSR sort gate)” value is on record?
The value was “low polyreactivity”.

For “QVQLVESGGGLVQAGGSLRLSCAASGGIIAINAMGWYRQAPGKERELVAAISWGDGITYYADSVKGRFTISRDNAKNTVDLQMNSLKPEDTAVYYCNARLLSGPGYDYWGQGTQVTVSS”, which “polyreactivity (PSR sort gate)” value is on record?
Its value is “low polyreactivity”.

With “QVQLVESGGGLVQAGGSLRLSCAASGGIIGWYAMGWYRQAPGKERELVAAINWSGADTYYADSVKGRFTISRDNAKNTVYLQMNSLKPEDTAVYYCAADGHKYRMDYWGQGTQVTVSS” as the sequence, how does the “polyreactivity (PSR sort gate)” value read?
Its value is “low polyreactivity”.

Which “polyreactivity (PSR sort gate)” value does the source give for “QVQLVESGGGLVQAGGSLRLSCAASGGIKRPYAMGWSRQAPRKERELVAAISYSGGSTYYADSVKGRFTISRDTAKISVYLLMNSLKTEDTAVYYCIAYRQCSNVLTTYEYWGKGTQVTVSS” here?
Its value is “high polyreactivity”.
